In publication PMC3612083, “Imaging Beads-Retained Prey Assay for Rapid and Quantitative Protein-Protein Interaction” (PLoS ONE, 2013):
No end group written: not given here.

Tests used:
[1] = biological target: T1, GST-GRIP Y2177A (Golgin245 GRIP Y2177A in pGEB) (UniProt Q13439 2168-2215, Y2177A); experiment: pull-down; imaging beads-retained prey (IBRP) assay: GST-bait on glutathione beads (16 µg/µl), HEK293 lysate with GFP-prey, 100 µM GMPPNP; 30 min at 4°C, washes with 300 mM NaCl, bead fluorescence imaged; GFP lysate as control; details: one partner purified
T1 construct: GRIP domain of Golgin245 with Y2177A; insert moved from the pEGFP-C2 construct by EcoRI/BamHI into pGEB; pGEB is a modified pGEX-KG vector; also called Y2177A mutant
T1 chain (looked up): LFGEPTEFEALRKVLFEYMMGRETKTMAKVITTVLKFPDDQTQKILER

[2] = biological target: T2, GST-Arl1 (UniProt P61212 1-181); experiment: pull-down; IBRP assay: GST-Arl1 on glutathione beads (13 µg/µl) loaded with GMPPNP, HEK293 lysate with GFP-prey; bead fluorescence imaged; details: one partner purified
T2 construct: Arl1; also called Arl1-GMPPNP; source: loaded with GMPPNP or GDP on the beads
T2 sequence (looked up): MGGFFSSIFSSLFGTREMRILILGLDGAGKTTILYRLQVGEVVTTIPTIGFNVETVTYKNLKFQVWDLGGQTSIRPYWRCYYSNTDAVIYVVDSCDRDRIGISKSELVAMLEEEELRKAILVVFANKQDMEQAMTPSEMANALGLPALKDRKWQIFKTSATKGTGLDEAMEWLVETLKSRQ

B1: Arl1-GFP (wild type rat Arl1 in pEGFP-N1) (natural protein, UniProt P61212 1-181, looked up)
chain: MGGFFSSIFSSLFGTREMRILILGLDGAGKTTILYRLQVGEVVTTIPTIGFNVETVTYKNLKFQVWDLGGQTSIRPYWRCYYSNTDAVIYVVDSCDRDRIGISKSELVAMLEEEELRKAILVVFANKQDMEQAMTPSEMANALGLPALKDRKWQIFKTSATKGTGLDEAMEWLVETLKSRQ
notes: Arl1, ARF family small GTPase, rat, wild type; source: HEK293, transfected, in lysate
[1]
  fold reduction of the interaction (IBRP affinity) against wild type GST-GRIP: > 14 fold

B2: GFP-GRIP (Golgin245 GRIP domain wild type in pEGFP-C2) (domain or fragment, UniProt Q13439 2168-2215, looked up)
chain: {GFP}-LFGEPTEFEYLRKVLFEYMMGRETKTMAKVITTVLKFPDDQTQKILER
notes: GRIP domain of Golgin245; source: HEK293, transfected, in lysate
[2]
  relative IBRP affinity with GMPPNP, fold of that with GDP: 3 fold

B3: GFP-GRIP (Y2177A) (Golgin245 GRIP domain Y2177A mutant in pEGFP-C2) (domain or fragment, UniProt Q13439 2168-2215, looked up)
chain: {GFP}-LFGEPTEFEALRKVLFEYMMGRETKTMAKVITTVLKFPDDQTQKILER
notes: GRIP domain of Golgin245 with Y2177A; source: HEK293, transfected, in lysate
[2]
  fold reduction of relative IBRP affinity against wild type GRIP domain: ~80 fold
